In patent US20220340894A1 (CDR LIFE, published 2022):

B1: M0855 scFv (scFv)
scFv: QQQLEESGGGLVTPGTPLTLTCTVSGIDLSSYAMGWVRQAPGKGLEWIGTINDGGSAFYASWVKGRFTISRTSTTVDLKITSPTAEDTATYFCAKTYGTNGDVYWGYFNLWGQGTLVTISSGGGGSGGGGSGGGGSGGGGASELVMTQTPASVSEPVGGTVTIKCQASQSIGSNLAWYQQKPGQPPKLLIYYESILASGVPSRFSGSGSGTEYTLTISGAQADDAATYYCQQGYSSSNIDNAFGGGTEVVVK
notes: Rabbit scFv from the biopanning screen
B2: M0856 scFv (scFv)
scFv: QQQLEESGGGLVTPGTPLTLTCTVSGIDLSSYAMGWVRQAPGKGLEWIGTINDGGSAFYASWVKGRFTISRTSTTVDLKITSPTAEDTATYFCAKTYGTNGDVYWGYFNLWGQGTLVTISSGGGGSGGGGSGGGGSGGGGASELVMTQTPASVSEPVGGTVTIKCQASQSIGSNLAWYQQKPGQPPKLLIYYESILASGVPSRFSGSGSGTEYTLTISGAQADDAATYYCQQGYSSSNILNAFGGGTEVVVK
notes: as for B1
B3: M0852 scFv (scFv)
scFv: QQQLEESGGGLVTPGTPLTLTCTVSGFSLSNYAMGWVRQAPGKGLEWIGTINDGGTAFYANWLKGRFTISRTSTTVDLKITSPTTEDTATYFCARAYGSNGDVYWGYFNLWGQGTLVTVSSGGGGSGGGGSGGGGSGGGGASELVMTQTASPVSAAVGGTVTINCQASQSISSRSLSWYQQKPGQPPKLLIYEASKLASGVPSRFSGSGSGTQFTLTISGVQADDAATYYCQQGYSSSNVDNVFGGGTEVVVK
notes: as for B1
B4: M0851 scFv (scFv)
scFv: QEQLEESGGGLVTPGTPLTLTCTASGFSLSSYAMIWVRQAPGKGLEWIGTINDGGTAFYASWVKGRFTISRTSTTVDLKITSPTTEDTATYFCARAYGSNGDVYWGYVNLWGQGTLVTISSGGGGSGGGGSGGGGSGGGGASELVMTQTPSSVSAAVGGTVTINCQASQNIGSVFAWYQQKPGQPPKLLIYKASSLASGVPSRFKGSGSGTQFTLTISGVEAADAATYYCQQGASSSNVDNIFGGGTEVVVK
notes: as for B1
B5: M0866 scFv (scFv)
scFv: QSVKESGGRLVTPGTPLTLTCTASGFTISSSAISWVRQAPGKGLEYIGIIRSGGTTDYASWAKGRFAISKTSTTVDLKITSPTTEDTATYFCARDPPYITSTYFDLWGQGTLVTVSSGGGGSGGGGSGGGGSGGGGASELVLTQPQSVSGSLGQTVSISCKRARDSVESYDVHWYQQHPGKTPTIVIYKDDQRPSGVPDRFSGSIDSTSNSASLTITGLLAEDEADYFCQSFDGDAVVFGGGTQLTVTG
notes: as for B1
B6: M0865 scFv (scFv)
scFv: PAALMESGGRLVTPGTPLTLTCTVSGIDLSTFAMTWVRQAPGKGLEWLGIINTGGSAYYTSWAKGRFTISRTSTTVDLKITSPTTEDTATYFCARGDWSSATDLWGQGTLVTISSGGGGSGGGGSGGGGSGGGGASDPDMTQTPSSVSAAVGGTVTINCQASQSVYDNKVLAWYRQKPGQPPKLLIYKASTLASGVPSRFKGRGSGTQFTLTISGVQADDAATYYCLGEFSCSSADCHAFGGGTELEIL
notes: as for B1
B7: M0863 scFv (scFv)
scFv: PEQLMESGGGLVTPGGVLTLTCTASGFSFSSYGVNWVRQAPGKGLEWIGFIFGDGTTYYANWAKGRFTISKTSTTVDLKMTSPTTEDTATYFCARDGYGGYDYIINLWGQGTLVTVSSGGGGSGGGGSGGGGSGGGGASAQVLTQTPASVSAAVGGTVSISCQSSQSVVNNNWLAWYQQKPGQPPKLLIYKASTLESGVPSRFKGSGSGTQFTLTISGVQADDAATYYCQGAYSGNIYYNAFGGGTEVVVK
notes: as for B1
B8: M0857 scFv (scFv)
scFv: QQQLVESGGRLVTPGTPLTLTCTASGIDLNSNAMSWVRQGPGKGLEWIGDIWSGGYTDYASWAKGRFTISKTSTTVDLKMTSLTAADTATYFCARDRLAGDGVVDYDLWGQGTLVTISSGGGGSGGGGSGGGGSGGGGASELDMTQTPASVEVAVGGTVTIKCQASQNIYSNLAWYQQKPGQRPKLLIYGASTLASGVPSRFKGSGSGTEYTLTINGVQAADAATYYCQQGFSSSNVDNVFGGGTEVVVK
notes: as for B1
B9: M0850 scFv (scFv)
scFv: QEQLEESGGGLVTPGTPLTLTCTASGFSLSSYAMIWVRQAPGKGLEWIGTINDGGTAFYANWVKGRFTISRTSTTVDLKMTSPTTEDTATYFCARAYGSNGDVYWGYVNLWGQGTLVTVSSGGGGSGGGGSGGGGSGGGGASELVMTQTPASVSEPVGGTVTIKCQASQSIGSNLAWYQQKPGQPPKLLIYAAANLASGVSSRFKGSRSGTEYTLTISGVQAADAATYYCQQGYSSSNVANVFGGGTELEIL
notes: as for B1
B10: M0854 scFv (scFv)
scFv: QSVKESWGRLVTPGGSLTLTCTVSGIDLNNYAMGWVRQAPGKGLEWIGTINNDGATYYPSWARGRFTISKTSTTVDLKITSPTTEDTATYFCARTYGSNGDVYWGYFNLWGQGTLVTVSSGGGGSGGGGSGGGGSGGGGASALELTQTPASVEVAVGGTVTINCQASQSIGGALNWYQQKSGQPPKLLIYLASTLASGVSSRFKGSGSGTQFTLTISGVEAADAATYYCQQGYSASNIDNAFGGGTEVVVK
notes: as for B1
B11: M0861 scFv (scFv)
scFv: QSVKESGGRLVTPGTPLTLTCTVSGFSLSNYAMSWVRQAPGKGLEYIGIVSSGGTTYYASWAKGRFTISKTSTTVDLKITSPTTEDTATYFCAKDLYYGPTTYSAFNLWGQGTLVTISSGGGGSGGGGSGGGGSGGGGASELVLTQPASVQVNLGQTVSLTCTADTLSRSYASWYQLKPGQAPVLLIYRDTSRPSGVPDRFSGSSSGNTATLTISGAQAGDEGDYVCATSDGSGSNFQLFGGGTQLTVTG
notes: as for B1
B12: M0864 scFv (scFv)
scFv: QSVKESGGGLVTPGTPLTLTCTVSGFSLSTYAISWVRQAPGKGLEWIGFIDTVDSAYYASWAKGRFTISKTSSTTVDLKMTSPTTEDTATYFCAKLRYGDYGDYTLWGQGTLVTVSSGGGGSGGGGSGGGGSGGGGASELVMTQTPSPVSGAVGGTVTIKCQASQNIYSYLAWYQQKPGQPPKLLIYKASTLASGVPSRVKGSGSGTEYTLTISGVQAADAATYYCQCTYYDSNTFGGGTEVVVK
notes: as for B1
B13: M0848 scFv (scFv)
scFv: QEQLVESGGGLVTPGTPLTLTCTVSGFSLSSYAMGWVRQAPGKGLEWIGTINDGGTAFYASWVKGRFTISRTSTTVDLRVTSPTTEDTATYFCARAYGSNGDVYWGYFNLWGQGTLVTVSSGGGGSGGGGSGGGGSGGGGASELDLTQTPASVEVAVGGTVTIKCQASQSIGSYLSWYQQKPGQRPKLLIFRASTLASGVSSRFKGSGSGTQFTLTISGVECADAATYYCQQGYSSTNLDNVFGGGTEVVVK
notes: as for B1
B14: M0849 scFv (scFv)
scFv: QEQLEESGGGLVTPGGTLTLTCTVSGFSLSNYAMGWVRQAPGKGLEWIGTINDGGTAFYAKWLKGRFTISRTSTTVDLKITSPTTEDTATYFCARAYGSNGDVYWGYFNLWGQGTLVTISSGGGGSGGGGSGGGGSGGGGASELVMTQTPSSVSEPVGGTVTIKCQASQSIGSNLAWYQQRPGQPPKLLIYSASTLASGVSSRFKGSGSGTESTLTISGVQAADAATYYCQQGYSSSNVDNVFGGGTELEIL
notes: as for B1
B15: M0862 scFv (scFv)
scFv: PEQLMESGGGLVTPGGVLTLTCTASGFSFSSYGVNWVRQAPGKGLEWIGFIFGDGTTYYANWAKGRFTISKTSTTVDLKMTSPTTEDTATYFCARDGYGGYDYIINLWGQGTLVTVSSGGGGSGGGGSGGGGSGGGGASAQVLTQTPASVSAAVGGTVSISCQSSQSVVNNNWLAWYQQKPGQPPKLLIYKASTLESGVPSRFKGSGSGTQFTLTISGVQADDAATYYCLGEFSCSSADCHAFGGGTELEIL
notes: as for B1
B16: M0853 scFv (scFv)
scFv: QQQLVESGGGLVTPGTPLTLTCTVSGFSLSNYAMGWVRQAPGKGLEWIGTINDGGTAFYANWLKGRFTISRTSTTVDLKITSPTTEDTATYFCARAYGSNGDVYWGYFNLWGQGTLVTVSSGGGGSGGGGSGGGGSGGGGASELVMTQTASPVSAAVGGTVTINCQASQSISSRSLSWYQQKPGQPPKLLIYEASKLASGVPSRFSGSGSGTQFTLTISGVQADDAATYYCQQGYSSSNVDNFGGGTEVVVK
notes: as for B1
B17: M0859 scFv (scFv)
scFv: QSVKESGGRLVTPGTPLTLTCTVSGFSLSNYAMSWVRQAPGKGLEYIGIVSSGGTTYYASWAKGRFTISKTSTTVDLKITSPTTEDTATYFCAKDLYYGPTTYSAFNLWGQGTLVTISSGGGGSGGGGSGGGGSGGGGASELVLTQPQSVSGSLGQTVSISCKRARDNIEDYYVHWYQQHPGKTPTIVIHKDDQRPSGVPDRFSGSIDSTSNSASLTITGLLAEDEADYFCQSFDNDASPVFGGGTQLTVTG
notes: as for B1
B18: M0860 scFv (scFv)
scFv: QSVKESGGRLVTPGTPLTLTCTVSGFSLSNYAMSWVRQAPGKGLEYIGIVSSGGTTYYASWAKGRFTISKTSTTVDLKITSPTTEDTATYFCAKDLYYGPTTYSAFNLWGQGTLVTISSGGGGSGGGGSGGGGSGGGGASELVLTQPQSVSGSLGQTVSISCKRARDNIEDYYVHWYQQYPGKTPTIVIYKDDQRPSGVPDRFSGSIDSTSNSASLTITGLLAEDEADYFCQSFDNNANVVFGGGTQLTVTG
notes: as for B1
B19: M0858 scFv (scFv)
scFv: QSVEESGGRLVTPGTPLTLTCTVSGFSLSNYAMSWVRQAPGKGLEYIGIVSSGGTTYYASWAKGRFTISKTSTTVDLKITSPTTEDTATYFCAKDLYYGPTTYSAFNLWGQGTLVTVSSGGGGSGGGGSGGGGSGGGGASELVLTQPQSVSGSLGQTVSISCKRARNNIEDYYVHWYQQHPGRSPTIVIHKDDQRPSGVPDRFSGSIDSTSNSASLTITGLLAEDEADYFCQSFDNNANPVFGGGTQLTVTG
notes: as for B1

The binders below were run against T1, HLA-A2/MAGE-A4 complex (HLA-A*02:01 extracellular domain, human β2m, MAGE-A4 peptide 230-239) (human, UniProt P04439 25-299 at identity 0.94); P61769 21-119) (assay: phage display biopanning and screening of the lambda and optimized kappa libraries).
T1 construct: also called MAGE-A4/HLA-A2 complex; pMHC

Binding result, binds:
B1, B2, B3, B4, B5, B6, B7, B8, B9, B10, B11, B12, B13, B14, B15, B16, B17, B18, B19
